Results as given in patent US20260098102A1 (NATIONAL UNIVERSITY CORPORATION KOBE UNIVERSITY, published 2026).
Substitutions are numbered along the chain they refer to. One block for each binder: values may come before it.

Assays:
mouse SIRPA_NOD = molecular target: T1, mouse SIRPA_NOD (mouse (NOD), UniProt P97797 32-513); test: cell-based ELISA on 293α cells expressing FLAG-tagged mouse SIRPA (NOD); Abs 490 normalized to FLAG tag [i]
T1 construct: FLAG-tagged (pFLAG V5-DEST), on 293α cells; also called NOD SCID
T1 chain: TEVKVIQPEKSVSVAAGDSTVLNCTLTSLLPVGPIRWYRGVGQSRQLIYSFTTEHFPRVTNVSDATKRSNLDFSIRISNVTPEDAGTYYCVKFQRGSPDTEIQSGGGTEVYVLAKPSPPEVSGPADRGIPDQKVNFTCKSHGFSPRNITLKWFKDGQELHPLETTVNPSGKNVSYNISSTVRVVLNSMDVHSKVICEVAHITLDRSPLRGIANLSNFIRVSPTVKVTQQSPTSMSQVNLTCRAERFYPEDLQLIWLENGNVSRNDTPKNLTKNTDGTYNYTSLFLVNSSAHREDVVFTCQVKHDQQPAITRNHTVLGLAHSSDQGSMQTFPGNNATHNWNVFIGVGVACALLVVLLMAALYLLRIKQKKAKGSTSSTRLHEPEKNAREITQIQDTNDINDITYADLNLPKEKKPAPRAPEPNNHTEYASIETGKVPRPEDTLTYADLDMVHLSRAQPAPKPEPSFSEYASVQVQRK
Protocol: (§1) The 293a cells, described in Example 1)-6, were prepared at 5× 10⁵ cells/mL in a 10% FBS-containing DMEM medium. pFLAG V5-DEST-SIRPA_V1-V10, pFLAG V5-DEST-monkey SIRPA, pFLAG V5-DEST-mouse SIRPA, or pFLAG V5-DEST was introduced into the cells using Lipofectamine LTX (Invitrogen), and 100 μL each was aliquoted to a 96-well plate (Corning Incorporated) and cultured overnight in a 10% FBS-containing DMEM medium at 37° C. under a 5% CO₂ condition. The obtained introduced cells were used for cell-based ELISA in a state that they adhered. After the culture supernatant was removed, 50 μL per well of hD13_HIL3, hD13_HIL4h, hD13_H2L2, hD13_H2L3, or cD13 prepared in Examples 6 and 7 or a control antibody was added to each of various SIRPA genes-introduced cells at a final concentration of 0 to 10,000 ng/ml, and the mixture was allowed to stand at 4° C. for one hour. Thereafter, binding to human SIRPA was evaluated in the same manner as in Example 5-1.

monkey SIRPA protein = molecular target: T2, monkey SIRPA protein (cynomolgus monkey, UniProt P78324 31-504 (human entry)); test: cell-based ELISA on 293α cells expressing FLAG-tagged monkey SIRPA; Abs 490 normalized to FLAG tag [iii]
T2 construct: Expressed on 293α cells from pcDNA3.2 V5-DEST or pFLAG V5-DEST vectors; also called cynomolgus monkey SIRPA; cSIRPA
T2 chain: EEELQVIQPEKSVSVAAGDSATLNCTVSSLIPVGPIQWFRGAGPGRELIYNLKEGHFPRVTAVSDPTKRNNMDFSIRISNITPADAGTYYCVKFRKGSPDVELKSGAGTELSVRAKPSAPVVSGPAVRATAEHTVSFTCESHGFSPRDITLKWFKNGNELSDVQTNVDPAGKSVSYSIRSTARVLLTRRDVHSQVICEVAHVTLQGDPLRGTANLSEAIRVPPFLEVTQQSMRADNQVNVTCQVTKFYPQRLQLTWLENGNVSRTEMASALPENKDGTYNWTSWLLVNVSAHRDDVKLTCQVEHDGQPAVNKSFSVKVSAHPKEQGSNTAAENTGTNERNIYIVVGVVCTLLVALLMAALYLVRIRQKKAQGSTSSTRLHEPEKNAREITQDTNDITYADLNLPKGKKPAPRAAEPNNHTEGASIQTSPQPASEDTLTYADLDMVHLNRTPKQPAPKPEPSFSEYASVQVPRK
Protocol: as §1

human SIRPA_V2 protein = molecular target: T3, human SIRPA_V2 protein (human, UniProt P78324 31-504); test: blocking cell-based ELISA: peroxidase-labeled CD47-Fc (1 µg/mL) on 293α cells expressing SIRPA_V2; y axis = CD47-Fc signal relative to no antibody (100)
T3 construct: Expressed on 293α cells from pcDNA3.2 V5-DEST or pFLAG V5-DEST (FLAG-tagged) vectors; also called human SIRPA Variant 2; ECD variant (full-length, amino acids 1 to 504)
T3 sequence (P78324 other isoform, or with tags, fused parts or gaps limits assumed): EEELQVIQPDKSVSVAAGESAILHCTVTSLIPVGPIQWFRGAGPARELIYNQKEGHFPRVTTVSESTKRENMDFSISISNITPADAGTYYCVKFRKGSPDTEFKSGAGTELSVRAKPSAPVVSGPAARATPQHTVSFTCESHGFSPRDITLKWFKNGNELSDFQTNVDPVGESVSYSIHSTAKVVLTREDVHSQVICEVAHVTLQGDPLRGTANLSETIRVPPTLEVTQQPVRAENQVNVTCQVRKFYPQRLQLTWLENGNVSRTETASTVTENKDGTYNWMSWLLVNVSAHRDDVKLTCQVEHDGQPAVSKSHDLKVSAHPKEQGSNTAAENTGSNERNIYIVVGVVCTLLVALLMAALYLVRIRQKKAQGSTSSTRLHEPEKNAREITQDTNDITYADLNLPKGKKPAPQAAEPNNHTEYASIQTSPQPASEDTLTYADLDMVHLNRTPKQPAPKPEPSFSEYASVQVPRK
Protocol: After the culture supernatant of human SIRPA or monkey SIRPA expression vector-introduced 293α cells prepared in Example 8)-1 was removed, 50 μL per well of hD13_HIL3, hD13_HIL4h, hD13_H2L2, or hD13_H2L3 diluted with 5% FBS-containing PBS to a final concentration of 0 to 10,000 ng/ml was added to each of pcDNA3.2 V5-DEST-SIRPA_V1, pcDNA3.2 V5-DEST-SIRPA_V2, pcDNA3.2 V5-DEST-monkey SIRPA, and pcDNA3.2 V5-DEST-introduced 293α cells, immediately followed by addition of peroxidase-labeled CD47-Fc prepared with 5% FBS-containing PBS at 1 μg/mL, and the mixture was allowed to stand at 4° C. for one hour. Thereafter, the SIRPA-CD47 binding inhibitory activity was evaluated in the same manner as in 1)-6-3.

human SIRPA_V1 protein = molecular target: T4, human SIRPA_V1 protein (human, UniProt P78324 31-504); test: cell-based ELISA on 293α cells expressing FLAG-tagged SIRPA_V1; Abs 490 normalized to FLAG tag [i]
T4 construct: Expressed on 293α cells from pcDNA3.2 V5-DEST or pFLAG V5-DEST (FLAG-tagged) vectors; also called human SIRPA Variant 1; hSIRPA V1
T4 sequence (P78324 31-504 limits assumed): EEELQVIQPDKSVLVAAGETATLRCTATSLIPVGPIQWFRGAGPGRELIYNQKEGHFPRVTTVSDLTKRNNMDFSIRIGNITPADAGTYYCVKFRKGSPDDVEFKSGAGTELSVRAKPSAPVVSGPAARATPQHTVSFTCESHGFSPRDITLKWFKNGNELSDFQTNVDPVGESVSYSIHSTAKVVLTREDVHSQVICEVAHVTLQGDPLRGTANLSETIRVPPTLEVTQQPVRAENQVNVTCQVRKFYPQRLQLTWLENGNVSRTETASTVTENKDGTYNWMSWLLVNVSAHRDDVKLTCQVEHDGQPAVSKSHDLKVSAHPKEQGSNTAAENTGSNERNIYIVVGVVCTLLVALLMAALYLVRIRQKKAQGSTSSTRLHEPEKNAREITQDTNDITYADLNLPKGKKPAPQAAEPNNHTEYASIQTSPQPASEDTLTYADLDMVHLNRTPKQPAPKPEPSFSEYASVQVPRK
Protocol: as §1

human SIRPA_V10 = molecular target: T5, human SIRPA_V10 (human, UniProt P78324 31-504); test: cell-based ELISA on 293α cells expressing FLAG-tagged SIRPA_V10; Abs 490 normalized to FLAG tag [ii]
T5 construct: FLAG-tagged (pFLAG V5-DEST), on 293α cells; also called human SIRPA Variant 10
T5 sequence (P78324 other isoform, or with tags, fused parts or gaps limits assumed): as the sequence (P78324 other isoform, or with tags, fused parts or gaps limits assumed) above
Protocol: as §1

human SIRPA_V8 = molecular target: T6, human SIRPA_V8 (human, UniProt P78324 31-504); test: cell-based ELISA on 293α cells expressing FLAG-tagged SIRPA_V8; Abs 490 normalized to FLAG tag [iv]
T6 construct: FLAG-tagged (pFLAG V5-DEST), on 293α cells; also called human SIRPA Variant 8
Protocol: as §1

human SIRPA_V9 = molecular target: T7, human SIRPA_V9 (human, UniProt P78324 31-504); test: cell-based ELISA on 293α cells expressing FLAG-tagged SIRPA_V9; Abs 490 normalized to FLAG tag [i]
T7 construct: FLAG-tagged (pFLAG V5-DEST), on 293α cells; also called human SIRPA Variant 9
Protocol: as §1

B1: humanized anti-SIRPA antibody hD13_H1L3 (antibody, human IgG4 S228P, kappa, F234A L235A, V domains shown)
VH: QVQLVESGGGVVQPGRSLRLSCAASGFTFSDYGMIWVRQAPGKGLEWVASISSSSSYIYYADSVKGRFTISRDNSKNRLYLQMNSLRAEDTAVYYCARRYYGFNYPFDYWGQGTMVTVSS
VL: DTQLTQSPSSLSASVGQRVTITCGASKSVRTYMHWYQQKPGKQPKLLIYSASNLEAGVPSRFSGSGSGTDFTLTISSLQPEDFATYYCQQSNEPPYTFGQGTKLEIKR
notes: hH1 heavy chain (IgG4proFALA) and hL3 kappa light chain; also called hD13_HIL3; HIL3 antibody
binding result (mouse SIRPA_NOD): no binding (tested: 10000 ng/mL)
EC50 (read off the curve) (monkey SIRPA protein): ~0.03 µg/mL
IC50 (read off the curve) (human SIRPA_V2 protein): ~0.6 µg/mL
EC50 (read off the curve) (human SIRPA_V1 protein): ~0.04 µg/mL
EC50 (read off the curve) (human SIRPA_V10): ~0.03 µg/mL
EC50 (read off the curve) (human SIRPA_V8): ~0.04 µg/mL
EC50 (read off the curve) (human SIRPA_V9): ~0.04 µg/mL

B2: humanized anti-SIRPA antibody hD13_H1L4 (antibody, human IgG4 S228P, kappa, F234A L235A, V domains shown)
VH: B1 VH
VL: DTVLTQSPDSLAVSLGQRATINCGASKSVRTYMHWYQQKPGQQPKLLIYSASNLEAGVPSRFSGSGSGTDFTLTISSLQAEDVAVYYCQQSNEPPYTFGQGTKVEIKR
notes: hH1 heavy chain (IgG4proFALA) and hL4 kappa light chain; also called hD13_HIL4; hD13_HIL4h
binding result (mouse SIRPA_NOD): no binding (tested: 10000 ng/mL)
EC50 (read off the curve) (monkey SIRPA protein): ~0.03 µg/mL
IC50 (read off the curve) (human SIRPA_V2 protein): ~0.7 µg/mL
EC50 (read off the curve) (human SIRPA_V1 protein): ~0.04 µg/mL
EC50 (read off the curve) (human SIRPA_V10): ~0.03 µg/mL
EC50 (read off the curve) (human SIRPA_V8): ~0.04 µg/mL
EC50 (read off the curve) (human SIRPA_V9): ~0.04 µg/mL

B3: humanized anti-SIRPA antibody hD13_H2L3 (antibody, human IgG4 S228P, kappa, F234A L235A, V domains shown)
VH: B1 VH with Q1E, R78T
VL: B1 VL
notes: hH2 heavy chain (IgG4proFALA) and hL3 kappa light chain; also called H2L3 antibody
binding result (mouse SIRPA_NOD): no binding (tested: 10000 ng/mL)
EC50 (read off the curve) (monkey SIRPA protein): ~0.03 µg/mL
IC50 (read off the curve) (human SIRPA_V2 protein): ~0.7 µg/mL
EC50 (read off the curve) (human SIRPA_V1 protein): ~0.05 µg/mL
EC50 (read off the curve) (human SIRPA_V10): ~0.03 µg/mL
EC50 (read off the curve) (human SIRPA_V8): ~0.04 µg/mL
EC50 (read off the curve) (human SIRPA_V9): ~0.04 µg/mL

The next lines start with the values.

binding result (mouse SIRPA_NOD): no binding (tested: 10000 ng/mL)
EC50 (read off the curve) (monkey SIRPA protein): ~0.03 µg/mL
IC50 (read off the curve) (human SIRPA_V2 protein): ~0.8 µg/mL
EC50 (read off the curve) (human SIRPA_V1 protein): ~0.04 µg/mL
EC50 (read off the curve) (human SIRPA_V10): ~0.03 µg/mL
EC50 (read off the curve) (human SIRPA_V8): ~0.04 µg/mL
EC50 (read off the curve) (human SIRPA_V9): ~0.04 µg/mL
B4: humanized anti-SIRPA antibody hD13_H2L2 (antibody, human IgG4 S228P, kappa, F234A L235A, V domains shown)
VH: B1 VH with Q1E, R78T
VL: B1 VL with D1A, T2I, Q43A
notes: hH2 heavy chain (IgG4proFALA) and hL2 kappa light chain; also called H2L2 antibody

binding result (mouse SIRPA_NOD): no binding (tested: 10000 ng/mL)
EC50 (read off the curve) (monkey SIRPA protein): ~0.03 µg/mL
IC50 (read off the curve) (human SIRPA_V2 protein): ~0.8 µg/mL
EC50 (read off the curve) (human SIRPA_V1 protein): ~0.05 µg/mL
EC50 (read off the curve) (human SIRPA_V10): ~0.03 µg/mL
EC50 (read off the curve) (human SIRPA_V8): ~0.04 µg/mL
EC50 (read off the curve) (human SIRPA_V9): ~0.04 µg/mL
B5: human chimeric anti-SIRPA antibody cD13 (antibody, human IgG4 S228P, kappa, F234A L235A, V domains shown)
VH: EVQLVESGGGLVQPGRSLKLSCLASGFTFSDYGMIWVRQAPGKGLEWVASISSSSSYIYYADTVKGRFTISRENAKNTLFLHMTSLRSEDTALYYCARRYYGFNYPFDYWGQGVMVTVSS
VL: DTVLTQSPALAVSLGQRVTISCGASKSVRTYMHWYQQKSGQQPKLLIYSASNLEAGVPSRFSGSGSGTDFTLTIDPVEADDIANYYCQQSNEPPYTFGAGTKLELKR
notes: Human IgG4proFALA heavy chain, human kappa light chain; also called cD13 (IgG4pf); human chimeric antibody D13
